Experimental data: publication PMC9496217, “Structural Basis of a Novel Agonistic Anti-OX40 Antibody” (Biomolecules, 2022)

Key:
Conditions in all cases: both partners purified
OX40-G70A = target: T1, OX40-G70A (human, UniProt P43489, G70A); test: BLI; DF004 (10 μg/mL) loaded on protein A sensors; OX40 variants as two-fold serial dilutions in PBS with 1% BSA; association 120 s, dissociation up to 320 s; Octet K2
T1 construct: OX40 (TNFRSF4), human, extracellular domain with G70A; Tag and host are told for recombinant OX40 in general, not for the variants by name; also called G70A variant of human OX40; source: HEK293F, transient expression, purified (told for recombinant human OX40 in general)

[1] = target: T2, human OX40 extracellular domain (recombinant, C-terminal His tag) (Homo sapiens); test: as above
T2 construct: OX40 (TNFRSF4, CD134), human, extracellular domain (four cysteine-rich domains CRD1-4); The deposited entries 8AG1 and 7YK4 hold the construct; also called hOX40; TNFRSF4; source: HEK293F, transient expression, purified (HisTrap, Superdex 200 gel filtration)
T2 chain: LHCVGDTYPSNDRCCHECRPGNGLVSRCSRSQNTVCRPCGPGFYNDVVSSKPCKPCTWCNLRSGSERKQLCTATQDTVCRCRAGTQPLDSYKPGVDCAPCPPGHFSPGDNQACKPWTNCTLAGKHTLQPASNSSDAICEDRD

[2] = target: T2, human OX40 extracellular domain …; test: ELISA; human OX40 variants coated on a 96-well plate; serially diluted antibody added for 2 h at 37 °C; detected with goat (Fab')2 anti-human IgG Fc (HRP)

B1: DF004 (full antibody, IgG1) (antibody, V domains shown)
VH: QVQLQQSGPGLVKPSQTLSLTCAISGDSVSSNSVSWDWIRQSPSRGLEWLGRTYYRSKWYNEYAVSVESRITINPDTSKNQFSLQLNSVTPEDTAIYFCVRNDYFFDLWGRGTLVTVSS
VL: EIVLTQSPATLSLSPGERATLSCRASQSVGSYLAWYQQKPGQAPRLLIYDASNRATGIPARFSGSGSGTDFTLTISSLEPEDFAVYYCQQRSNWPPGYTFGQGTKLEIK
notes: VH of DF004, as in the heavy chain (VH-CH1) of m3; IgG1 constant region; as the light chain (VL-CL) of m3; IgG1; scFv clone from a yeast display library made from PBMCs of healthy human donors, variable fragments grafted onto IgG1 Fc; source: HEK293F, transient expression, purified from the expression medium (protein A column)
B1 was tested, and the “fold decrease of binding affinity against wild-type OX40 (kd value)” value (OX40-G70A) was roughly 32 fold, the Kd [1] was 4.39 nM and the EC50 [2] was roughly 0.09 nM.
